Laboratory results from article PMC5241803, “Structural basis for the recognition and degradation of host TRIM proteins by Salmonella effector SopA” (Nature Communications, 2017).

What was measured:
[1] = target: T1, GST-SopA (S. Typhimurium, UniProt Q8ZNR3 1-782); experiment: pull-down; settings: both partners purified
T1 construct: also called recombinant SopA; source: E. coli BL21 (DE3), purified on glutathione sepharose 4B beads; not shown: GST, N-terminal, kept
T1 sequence: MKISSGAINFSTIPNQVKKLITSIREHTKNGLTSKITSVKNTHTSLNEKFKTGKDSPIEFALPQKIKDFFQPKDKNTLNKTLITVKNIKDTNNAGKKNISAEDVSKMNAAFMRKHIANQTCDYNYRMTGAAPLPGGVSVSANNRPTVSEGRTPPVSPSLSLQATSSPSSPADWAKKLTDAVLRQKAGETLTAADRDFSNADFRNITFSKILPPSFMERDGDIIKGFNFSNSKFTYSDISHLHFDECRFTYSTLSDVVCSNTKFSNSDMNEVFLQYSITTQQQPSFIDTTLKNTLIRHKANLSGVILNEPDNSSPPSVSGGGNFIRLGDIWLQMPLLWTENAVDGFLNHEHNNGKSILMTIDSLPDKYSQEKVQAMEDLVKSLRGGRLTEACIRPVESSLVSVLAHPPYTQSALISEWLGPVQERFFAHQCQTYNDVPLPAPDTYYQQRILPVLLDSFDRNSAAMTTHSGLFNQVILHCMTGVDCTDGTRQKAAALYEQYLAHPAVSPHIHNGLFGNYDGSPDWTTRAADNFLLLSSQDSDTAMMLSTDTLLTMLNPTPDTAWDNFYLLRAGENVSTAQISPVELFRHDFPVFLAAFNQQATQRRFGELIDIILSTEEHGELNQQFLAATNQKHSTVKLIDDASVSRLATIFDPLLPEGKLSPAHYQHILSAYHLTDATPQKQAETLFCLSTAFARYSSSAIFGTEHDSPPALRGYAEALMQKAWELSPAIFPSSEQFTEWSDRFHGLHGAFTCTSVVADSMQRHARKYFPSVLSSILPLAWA

[2] = target: T2, SopA (163–782) (S. Typhimurium, UniProt Q8ZNR3 163-782); experiment: ITC; 1 mM TRIM56 (1–94) injected into 20 μM SopA (163–782) in the cell, 25 °C, 10 mM HEPES, 100 mM NaCl, 1 mM TCEP; VP-ITC; settings: both partners purified
T2 construct: also called SopA WT; source: bacterially expressed, purified (Talon beads, size exclusion)
T2 sequence: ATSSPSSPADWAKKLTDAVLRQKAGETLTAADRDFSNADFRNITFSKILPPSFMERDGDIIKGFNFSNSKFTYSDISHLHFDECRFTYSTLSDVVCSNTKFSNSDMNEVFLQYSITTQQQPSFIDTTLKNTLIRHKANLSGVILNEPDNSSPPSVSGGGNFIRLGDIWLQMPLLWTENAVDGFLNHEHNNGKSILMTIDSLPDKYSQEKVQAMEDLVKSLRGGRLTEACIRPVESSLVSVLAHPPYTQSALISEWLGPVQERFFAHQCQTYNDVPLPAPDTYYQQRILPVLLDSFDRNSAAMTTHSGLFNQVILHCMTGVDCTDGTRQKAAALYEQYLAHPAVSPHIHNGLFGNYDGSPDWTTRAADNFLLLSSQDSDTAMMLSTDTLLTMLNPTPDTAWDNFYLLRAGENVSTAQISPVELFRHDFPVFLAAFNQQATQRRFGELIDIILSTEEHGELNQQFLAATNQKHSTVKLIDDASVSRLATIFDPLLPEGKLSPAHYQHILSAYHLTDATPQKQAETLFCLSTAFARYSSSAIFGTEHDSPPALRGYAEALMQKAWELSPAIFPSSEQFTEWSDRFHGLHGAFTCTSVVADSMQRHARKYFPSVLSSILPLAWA

B1: MBP-TRIM56 (natural protein, human, UniProt Q9BRZ2 1-755, looked up)
chain: MVSHGSSPSLLEALSSDFLACKICLEQLRAPKTLPCLHTYCQDCLAQLADGGRVRCPECRETVPVPPEGVASFKTNFFVNGLLDLVKARACGDLRAGKPACALCPLVGGTSTGGPATARCLDCADDLCQACADGHRCTRQTHTHRVVDLVGYRAGWYDEEARERQAAQCPQHPGEALRFLCQPCSQLLCRECRLDPHLDHPCLPLAEAVRARRPGLEGLLAGVDNNLVELEAARRVEKEALARLREQAARVGTQVEEAAEGVLRALLAQKQEVLGQLRAHVEAAEEAARERLAELEGREQVARAAAAFARRVLSLGREAEILSLEGAIAQRLRQLQGCPWAPGPAPCLLPQLELHPGLLDKNCHLLRLSFEEQQPQKDGGKDGAGTQGGEESQSRREDEPKTERQGGVQPQAGDGAQTPKEEKAQTTREEGAQTLEEDRAQTPHEDGGPQPHRGGRPNKKKKFKGRLKSISREPSPALGPNLDGSGLLPRPIFYCSFPTRMPGDKRSPRITGLCPFGPREILVADEQNRALKRFSLNGDYKGTVPVPEGCSPCSVAALQSAVAFSASARLYLINPNGEVQWRRALSLSQASHAVAALPSGDRVAVSVAGHVEVYNMEGSLATRFIPGGKASRGLRALVFLTTSPQGHFVGSDWQQNSVVICDGLGQVVGEYKGPGLHGCQPGSVSVDKKGYIFLTLREVNKVVILDPKGSLLGDFLTAYHGLEKPRVTTMVDGRYLVVSLSNGTIHIFRVRSPDS
notes: TRIM56, human, full length, in pMAL-C2X; also called recombinant TRIM56; not shown: MBP, N-terminal, kept
B1: binds [1].

B2: TRIM56 (1–94) (domain or fragment, human, UniProt Q9BRZ2 1-94, looked up)
chain: MVSHGSSPSLLEALSSDFLACKICLEQLRAPKTLPCLHTYCQDCLAQLADGGRVRCPECRETVPVPPEGVASFKTNFFVNGLLDLVKARACGDL
notes: TRIM56, human, RING domain, residues 1-94; in the crystal this stretch stood N-terminal on one chain with SopA (163–425); also called TRIM56 RING domain; TRIM56 RING
With B2 the Kd [2] was about 9 µM.
